Results on 42 molecules are retold here after article PMC10681739, “High-throughput data and modeling reveal insights into the mechanisms of cooperative DNA-binding by transcription factor proteins”.

In this data set the target is ETS1:RUNX1 (Homo sapiens, UniProt P14921;Q01196 full;full). In words: gcPBM; 1 nM ETS1 + 25 nM RUNX1, anti-ETS1 signal, normalised. As to conditions: tags: N-terminal GST (pDEST15), kept (PMC6008103); copies: 1;1; label: surface-attached array probe.
Chain of ETS1:RUNX1 (P14921 whole entry, chain 1 of 2): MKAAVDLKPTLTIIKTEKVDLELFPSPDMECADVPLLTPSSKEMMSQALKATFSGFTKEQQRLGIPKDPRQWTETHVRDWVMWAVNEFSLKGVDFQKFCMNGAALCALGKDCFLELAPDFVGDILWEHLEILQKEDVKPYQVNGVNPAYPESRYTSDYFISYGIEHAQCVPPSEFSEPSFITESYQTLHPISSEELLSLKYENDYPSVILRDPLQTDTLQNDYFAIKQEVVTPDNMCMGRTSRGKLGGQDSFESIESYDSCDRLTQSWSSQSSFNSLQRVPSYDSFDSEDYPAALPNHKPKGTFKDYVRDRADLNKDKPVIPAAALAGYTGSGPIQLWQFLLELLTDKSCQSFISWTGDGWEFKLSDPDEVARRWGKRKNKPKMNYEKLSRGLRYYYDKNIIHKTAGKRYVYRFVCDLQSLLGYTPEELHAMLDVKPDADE
Chain of ETS1:RUNX1 (Q01196 whole entry, chain 2 of 2): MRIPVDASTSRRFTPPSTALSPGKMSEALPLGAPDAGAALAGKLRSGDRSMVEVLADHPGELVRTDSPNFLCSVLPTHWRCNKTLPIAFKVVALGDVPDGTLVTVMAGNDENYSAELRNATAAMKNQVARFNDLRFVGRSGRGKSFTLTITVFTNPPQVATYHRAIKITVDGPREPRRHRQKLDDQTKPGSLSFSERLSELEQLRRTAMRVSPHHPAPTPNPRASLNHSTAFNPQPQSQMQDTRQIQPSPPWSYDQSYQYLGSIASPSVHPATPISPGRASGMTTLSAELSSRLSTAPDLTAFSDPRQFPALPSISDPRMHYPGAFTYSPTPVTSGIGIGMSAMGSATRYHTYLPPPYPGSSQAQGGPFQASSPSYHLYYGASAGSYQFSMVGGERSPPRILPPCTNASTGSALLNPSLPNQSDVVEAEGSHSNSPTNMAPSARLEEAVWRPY

B1: Table S2 A row 1400 (dsDNA)
DNA 1: AGCTGCATTTCCGGGCAGGCAATGAAACCACAGAGT
DNA 2: ACTCTGTGGTTTCATTGCCTGCCCGGAAATGCAGCT
Regarding B1, the binding signal was 3930 PBM fluorescence, median of replicate spots.

B2: Table S2 A row 426 (dsDNA)
DNA 1: GCCGGAAGCCACGCAGGGCCACGTCTGCGGTTCTGA
DNA 2: TCAGAACCGCAGACGTGGCCCTGCGTGGCTTCCGGC
Turning to B2, the binding signal was 4460 PBM fluorescence, median of replicate spots.

B3: Table S2 A row 1390 (dsDNA)
DNA 1: CTGTGACACGTGCGGAAGCTGTGGTAAGTGCATCCA
DNA 2: TGGATGCACTTACCACAGCTTCCGCACGTGTCACAG
With B3, the binding signal was 3240 PBM fluorescence, median of replicate spots.

B4: Table S2 A row 552 (dsDNA)
DNA 1: AACCATTACAGGATGTGAGATTCAAACCACTAACAG
DNA 2: CTGTTAGTGGTTTGAATCTCACATCCTGTAATGGTT
Regarding B4, the binding signal is 4190 PBM fluorescence, median of replicate spots.

B5: Table S2 A row 1124 (dsDNA)
DNA 1: ATCTTTTGATGAGGATGTGGTTTCCAGGCAGGTGCT
DNA 2: AGCACCTGCCTGGAAACCACATCCTCATCAAAAGAT
On to B5, for which the binding signal was 4440 PBM fluorescence, median of replicate spots.

B6: Table S2 A row 995 (dsDNA)
DNA 1: GCGCCCTCCAGGAAACGCCGCGGTTTACTGTCTGCC
DNA 2: GGCAGACAGTAAACCGCGGCGTTTCCTGGAGGGCGC
In the case of B6, the binding signal was 4310 PBM fluorescence, median of replicate spots.

B7: Table S2 A row 149 (dsDNA)
DNA 1: TTCAACAGGATATTGCTTTGTTACCACAGGCCCTTT
DNA 2: AAAGGGCCTGTGGTAACAAAGCAATATCCTGTTGAA
For the molecule B7, the binding signal is 3020 PBM fluorescence, median of replicate spots.

B8: Table S2 A row 18 (dsDNA)
DNA 1: GAGGCAGGCGGATGTCAGTGTGGTTAGAGCACAGTG
DNA 2: CACTGTGCTCTAACCACACTGACATCCGCCTGCCTC
B8: the binding signal was 3320 PBM fluorescence, median of replicate spots.

B9: Table S2 A row 877 (dsDNA)
DNA 1: GAGTGGGCGGAAATCCGTGCCTGGCAGACCACAAAG
DNA 2: CTTTGTGGTCTGCCAGGCACGGATTTCCGCCCACTC
With B9, the binding signal is 4940 PBM fluorescence, median of replicate spots.

B10: Table S2 A row 1407 (dsDNA)
DNA 1: TGTGTATGAGAACGGATATAGGTGGTTTTATAAGGA
DNA 2: TCCTTATAAAACCACCTATATCCGTTCTCATACACA
With B10, the binding signal is 3120 PBM fluorescence, median of replicate spots.

B11: Table S2 A row 485 (dsDNA)
DNA 1: TGAAGTACTAGTCAAGGATGTGGTTTTACATAGCAG
DNA 2: CTGCTATGTAAAACCACATCCTTGACTAGTACTTCA
For B11, the binding signal is 4920 PBM fluorescence, median of replicate spots.

B12: Table S2 A row 1325 (dsDNA)
DNA 1: GGACCGGTGTCTGGCGGATGCGGTCGTGAAGATAGG
DNA 2: CCTATCTTCACGACCGCATCCGCCAGACACCGGTCC
Regarding B12, the binding signal is 4590 PBM fluorescence, median of replicate spots.

B13: Table S2 A row 1293 (dsDNA)
DNA 1: AGGTCGCCCTCCGGATGCGGTCCCCACACCGCCTGC
DNA 2: GCAGGCGGTGTGGGGACCGCATCCGGAGGGCGACCT
Turning to B13, the binding signal was 3170 PBM fluorescence, median of replicate spots.

B14: Table S2 A row 464 (dsDNA)
DNA 1: AGCGACAGCGGATGCTCTCTGGCCGCAACATTCTTT
DNA 2: AAAGAATGTTGCGGCCAGAGAGCATCCGCTGTCGCT
With B14, the binding signal is 2940 PBM fluorescence, median of replicate spots.

B15: Table S2 A row 1035 (dsDNA)
DNA 1: AGTTGGTTCCTTCCGGTGGGTTTGTGGGTTTGGGGT
DNA 2: ACCCCAAACCCACAAACCCACCGGAAGGAACCAACT
Consider B15, for which the binding signal is 5250 PBM fluorescence, median of replicate spots.

B16: Table S2 A row 1073 (dsDNA)
DNA 1: ACCTTGCCTAGAGGAAGTGGTTTTTCGAATCTGAGT
DNA 2: ACTCAGATTCGAAAAACCACTTCCTCTAGGCAAGGT
Consider B16, for which the binding signal is 4490 PBM fluorescence, median of replicate spots.

B17: Table S2 A row 585 (dsDNA)
DNA 1: TGTATGAAAAAAACAGGAAACCACAGAGAACTGAGG
DNA 2: CCTCAGTTCTCTGTGGTTTCCTGTTTTTTTCATACA
Take B17: the binding signal is 4240 PBM fluorescence, median of replicate spots.

B18: Table S2 A row 189 (dsDNA)
DNA 1: TGGCAGAGCACATCCTGTGCGGTTTTCAGTTTTGCT
DNA 2: AGCAAAACTGAAAACCGCACAGGATGTGCTCTGCCA
For B18, the binding signal was 3840 PBM fluorescence, median of replicate spots.

B19: Table S2 A row 777 (dsDNA)
DNA 1: CAGGAGCAGTGTAGAGGAAGTGGTTTCCATCACGGA
DNA 2: TCCGTGATGGAAACCACTTCCTCTACACTGCTCCTG
Regarding B19, the binding signal is 4870 PBM fluorescence, median of replicate spots.

B20: Table S2 A row 1268 (dsDNA)
DNA 1: GAATGGCGGATGTGGCTGGGGAGAGAAAGCCGCAGA
DNA 2: TCTGCGGCTTTCTCTCCCCAGCCACATCCGCCATTC
Regarding B20, the binding signal was 4780 PBM fluorescence, median of replicate spots.

B21: Table S2 A row 791 (dsDNA)
DNA 1: CGGCAGGCAAGCAGGAAACCGCGAGTGGAGAAAGGG
DNA 2: CCCTTTCTCCACTCGCGGTTTCCTGCTTGCCTGCCG
As for B21, the binding signal was 2990 PBM fluorescence, median of replicate spots.

B22: Table S2 A row 860 (dsDNA)
DNA 1: CTGAGCCGGATGTTACTGGTTAGTGGTTTTCTTTAT
DNA 2: ATAAAGAAAACCACTAACCAGTAACATCCGGCTCAG
For the molecule B22, the binding signal was 5210 PBM fluorescence, median of replicate spots.

B23: Table S2 A row 1339 (dsDNA)
DNA 1: GTAGGGAAGACGGGATGTGGGTTTTCAGCCGTGGCC
DNA 2: GGCCACGGCTGAAAACCCACATCCCGTCTTCCCTAC
On to B23, for which the binding signal was 4760 PBM fluorescence, median of replicate spots.

B24: Table S2 A row 505 (dsDNA)
DNA 1: ACCCAGTAGGGGCCAGGATGTGGTGAAAAGAGAATT
DNA 2: AATTCTCTTTTCACCACATCCTGGCCCCTACTGGGT
B24: the binding signal is 3620 PBM fluorescence, median of replicate spots.

B25: Table S2 A row 1216 (dsDNA)
DNA 1: CCCGGCCACTTCCGCCTATTGCGGGCGTCGGCTAGG
DNA 2: CCTAGCCGACGCCCGCAATAGGCGGAAGTGGCCGGG
Turning to B25, the binding signal was 3350 PBM fluorescence, median of replicate spots.

B26: Table S2 A row 1756 (dsDNA)
DNA 1: GCCAACAGGAAGCTGGAAGCCAACCGCACTGTGTGC
DNA 2: GCACACAGTGCGGTTGGCTTCCAGCTTCCTGTTGGC
With B26, the binding signal is 3630 PBM fluorescence, median of replicate spots.

B27: Table S2 A row 34 (dsDNA)
DNA 1: GGAGGTGGGGAGGAAGTTCTGAAACCACACACATTT
DNA 2: AAATGTGTGTGGTTTCAGAACTTCCTCCCCACCTCC
B27: the binding signal was 4160 PBM fluorescence, median of replicate spots.

B28: Table S2 A row 238 (dsDNA)
DNA 1: GCGCGGACAGAGAAAGGATGTGGTATAGCAGAAAGT
DNA 2: ACTTTCTGCTATACCACATCCTTTCTCTGTCCGCGC
As to B28, the binding signal is 4350 PBM fluorescence, median of replicate spots.

B29: Table S2 A row 813 (dsDNA)
DNA 1: AAGTTGATTTCCGGGTAGTCTGTGGTTTCCTAATCA
DNA 2: TGATTAGGAAACCACAGACTACCCGGAAATCAACTT
On to B29, for which the binding signal is 4110 PBM fluorescence, median of replicate spots.

B30: Table S2 A row 717 (dsDNA)
DNA 1: GGACAGGAAGTTCCTGCAGCTTCTACCACAAACCTA
DNA 2: TAGGTTTGTGGTAGAAGCTGCAGGAACTTCCTGTCC
On to B30, for which the binding signal is 4990 PBM fluorescence, median of replicate spots.

B31: Table S2 A row 442 (dsDNA)
DNA 1: GGAAAAGGAAGTGGCTTTGACTTGCGGGCAGGGAGA
DNA 2: TCTCCCTGCCCGCAAGTCAAAGCCACTTCCTTTTCC
For the molecule B31, the binding signal is 3710 PBM fluorescence, median of replicate spots.

B32: Table S2 A row 163 (dsDNA)
DNA 1: GATTGTTATGTCCGGAAACCGCTTATCAGAGCCCTG
DNA 2: CAGGGCTCTGATAAGCGGTTTCCGGACATAACAATC
With B32, the binding signal was 5000 PBM fluorescence, median of replicate spots.

B33: Table S2 A row 145 (dsDNA)
DNA 1: TGGGGAACGCTGCGGATGCTGCGGTAAACCATGCGA
DNA 2: TCGCATGGTTTACCGCAGCATCCGCAGCGTTCCCCA
With B33, the binding signal is 5120 PBM fluorescence, median of replicate spots.

B34: Table S2 A row 122 (dsDNA)
DNA 1: GAGAAACAGGAAGAGGGGTGGTGGTTACGGAACACG
DNA 2: CGTGTTCCGTAACCACCACCCCTCTTCCTGTTTCTC
In the case of B34, the binding signal was 4040 PBM fluorescence, median of replicate spots.

B35: Table S2 A row 414 (dsDNA)
DNA 1: CGCCGAACTTCCGGCAGTAAATTCCGTGGTTTCCCT
DNA 2: AGGGAAACCACGGAATTTACTGCCGGAAGTTCGGCG
Take B35: the binding signal was 5300 PBM fluorescence, median of replicate spots.

B36: Table S2 A row 1300 (dsDNA)
DNA 1: CAAGTAATCTGCTCAGGAAGTGGTTTGAATAGAGGA
DNA 2: TCCTCTATTCAAACCACTTCCTGAGCAGATTACTTG
As to B36, the binding signal is 4710 PBM fluorescence, median of replicate spots.

B37: Table S2 A row 386 (dsDNA)
DNA 1: AACTGGGCGGAAAGAACGGCTAACCGCAAGCTGCCG
DNA 2: CGGCAGCTTGCGGTTAGCCGTTCTTTCCGCCCAGTT
Consider B37, for which the binding signal is 3490 PBM fluorescence, median of replicate spots.

B38: Table S2 A row 1553 (dsDNA)
DNA 1: GAAGGAAGTGGAGACAGTAAGGGGAAACCACAAACC
DNA 2: GGTTTGTGGTTTCCCCTTACTGTCTCCACTTCCTTC
For B38, the binding signal was 3570 PBM fluorescence, median of replicate spots.

B39: Table S2 A row 328 (dsDNA)
DNA 1: AGTAGAGGAGGAAGTTAAATGTGGTTTTCTGGGTGG
DNA 2: CCACCCAGAAAACCACATTTAACTTCCTCCTCTACT
For B39, the binding signal is 2960 PBM fluorescence, median of replicate spots.

B40: Table S2 A row 233 (dsDNA)
DNA 1: TCCTATATACTTCCGTTTGCCTCGCGGTTTCTTTCT
DNA 2: AGAAAGAAACCGCGAGGCAAACGGAAGTATATAGGA
For B40, the binding signal is 4400 PBM fluorescence, median of replicate spots.

B41: Table S2 A row 274 (dsDNA)
DNA 1: ATGCCTTCTTCCAGAGGATGTGGTCGCTACTAGTGG
DNA 2: CCACTAGTAGCGACCACATCCTCTGGAAGAAGGCAT
For the molecule B41, the binding signal is 4270 PBM fluorescence, median of replicate spots.

B42: Table S2 A row 1272 (dsDNA)
DNA 1: TTGAATATGAAAGGAAGTGGTTAGGTGATGTGTTCT
DNA 2: AGAACACATCACCTAACCACTTCCTTTCATATTCAA
Consider B42, for which the binding signal is 5150 PBM fluorescence, median of replicate spots.
